Measurements: patent US20140087995A1 (published 2014)
Numbered stars: 1 amine (or outer) side, 2 acyl side, 3 side chain; on linkers, the order of the positions; unused ones are H or OH. Bridge positions count the residues as written; N and C are the ends. Side chains are listed from the residue outwards. Ends that are not written are not given here. * marks the point of attachment. C20 diacid = O=C(O)CCCCCCCCCCCCCCCCCCC(=O)*; γGlu = O=C(O)[C@H](CCC(=O)[*:2])N[*:1]; AEEA = NCCOCCOCC(=O)O

T1: human amylin receptor (human, UniProt P30988 25-474; O60896 24-148, limits assumed)
T1 construct: whole, on cells; Used as cell membranes prepared from the Amylin 3(a)/CRE-luc BHK cells (Assay V); also called hAmylin-R; hAmylinR
T1 sequence (looked up) 1: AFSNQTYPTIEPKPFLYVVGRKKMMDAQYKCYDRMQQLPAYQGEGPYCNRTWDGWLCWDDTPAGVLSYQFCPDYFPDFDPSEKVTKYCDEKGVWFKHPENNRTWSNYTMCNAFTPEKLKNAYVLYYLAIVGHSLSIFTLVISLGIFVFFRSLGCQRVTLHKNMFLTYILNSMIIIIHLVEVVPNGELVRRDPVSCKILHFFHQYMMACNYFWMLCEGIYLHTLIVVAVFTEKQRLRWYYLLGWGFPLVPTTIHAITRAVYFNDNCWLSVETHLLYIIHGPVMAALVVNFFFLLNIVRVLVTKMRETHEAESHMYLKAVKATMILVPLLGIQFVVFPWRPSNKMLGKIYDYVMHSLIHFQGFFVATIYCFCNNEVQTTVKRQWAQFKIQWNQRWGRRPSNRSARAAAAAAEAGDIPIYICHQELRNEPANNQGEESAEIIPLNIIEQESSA
T1 sequence (looked up) 2: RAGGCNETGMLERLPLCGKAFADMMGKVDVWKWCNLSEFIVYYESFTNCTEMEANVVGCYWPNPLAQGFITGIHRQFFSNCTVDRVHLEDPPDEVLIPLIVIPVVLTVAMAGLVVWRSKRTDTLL


Molecular target: T1, human amylin receptor
Experiment: SPA competition vs 125I-rat amylin, membranes of amylin 3(a) receptor BHK cells (Assay V)
Description: The binding assay was performed using scintillation proximity assay (SPA) beads (RPNQ0001) from PerkinElmer and cell membranes from the Amylin 3(a)/CRE-luc cells (as described in Assay (II)) were used. Membranes were prepared in the following way; the cells were rinsed with PBS and incubated with Versene for approximately 5 min before harvesting. The cells were flushed with PBS and the cell-suspension was centrifuged for 5 min at 1000 rpm. Cells were homogenized (ultrathurrax) in a buffer containing 20 mM Na-HEPES and 10 mM EDTA (pH 7.4) and centrifuged at 20.000 rpm for 15 min. The resulting pellet was resuspended, homogenized and centrifuged (20.000 rpm, 15 min) in a buffer containing 20 mM Na-HEPES and 0.1 mM EDTA (pH 7.4, buffer 2). The resulting pellet was resuspended in buffer 2 and protein concentration was measured (BCA protein Assay, Pierce). The homogenate was kept cold during the whole procedure. The membranes were kept at −80° C. until use. The assay was performed in a 384 well Optiplate (PerkinElmer) in a total volume of 40 ul. Membranes were mixed with SPA beads. Final concentration of membranes 35 ng/μL final and SPA beads was 0.05 mg/well. Test-compounds were dissolved in DMSO and further diluted in assay buffer (50 mM Hepes, pH 7.4, 1 mM CaCl2, 5 mM MgCl₂, 0.1% OA and 0.02% Tween20). […] The final mixture was incubated with shaking at 400 rpm for 120 min at 25° C. prior to centrifugation (1500 rpm, 10 min). Samples were analyzed on TopCounter™ (Packard). The IC₅₀ was calculated using (one site binding competition analysis) GraphPad Prism5 as a measure of receptor affinity.

Binder	IC50
K([γGlu-C20 diacid])CNTATCATQRLANFLRHSSPNFGAIPSSTNVGSKTY-NH2 (disulfide 2-7; N-terminus assumed; SMILES CC[C@H](C)[C@H](NC(=O)[C@H](C)NC(=O)CNC(=O)[C@H](Cc1ccccc1)NC(=O)[C@H](CC(N)=O)NC(=O)[C@@H]1CCCN1C(=O)[C@H](CO)NC(=O)[C@H](CO)NC(=O)[C@H](Cc1c[nH]cn1)NC(=O)[C@H](CCCNC(=N)N)NC(=O)[C@H](CC(C)C)NC(=O)[C@H](Cc1ccccc1)NC(=O)[C@H](CC(N)=O)NC(=O)[C@H](C)NC(=O)[C@H](CC(C)C)NC(=O)[C@H](CCCNC(=N)N)NC(=O)[C@H](CCC(N)=O)NC(=O)[C@@H](NC(=O)[C@H](C)NC(=O)[C@@H]1CSSC[C@H](NC(=O)[C@@H](N)CCCCNC(=O)CC[C@H](NC(=O)CCCCCCCCCCCCCCCCCCC(=O)O)C(=O)O)C(=O)N[C@@H](CC(N)=O)C(=O)N[C@@H]([C@@H](C)O)C(=O)N[C@@H](C)C(=O)N[C@@H]([C@@H](C)O)C(=O)N1)[C@@H](C)O)C(=O)N1CCC[C@H]1C(=O)N[C@@H](CO)C(=O)N[C@@H](CO)C(=O)N[C@H](C(=O)N[C@@H](CC(N)=O)C(=O)N[C@H](C(=O)NCC(=O)N[C@@H](CO)C(=O)N[C@@H](CCCCN)C(=O)N[C@H](C(=O)N[C@@H](Cc1ccc(O)cc1)C(N)=O)[C@@H](C)O)C(C)C)[C@@H](C)O, also called compound 35) [N^ε1-[(4S)-4-carboxy-4-(19-carboxynonadecanoylamino)butanoyl]-[Arg17,Pro21,Pro27,Lys35]-h-amylin]	0.97 nM
K([γGlu-C20 diacid])CNTATCATQRLANFLRHSSPNFGAIPSSTNVGSETY-NH2 (disulfide 2-7; N-terminus assumed; SMILES CC[C@H](C)[C@H](NC(=O)[C@H](C)NC(=O)CNC(=O)[C@H](Cc1ccccc1)NC(=O)[C@H](CC(N)=O)NC(=O)[C@@H]1CCCN1C(=O)[C@H](CO)NC(=O)[C@H](CO)NC(=O)[C@H](Cc1c[nH]cn1)NC(=O)[C@H](CCCNC(=N)N)NC(=O)[C@H](CC(C)C)NC(=O)[C@H](Cc1ccccc1)NC(=O)[C@H](CC(N)=O)NC(=O)[C@H](C)NC(=O)[C@H](CC(C)C)NC(=O)[C@H](CCCNC(=N)N)NC(=O)[C@H](CCC(N)=O)NC(=O)[C@@H](NC(=O)[C@H](C)NC(=O)[C@@H]1CSSC[C@H](NC(=O)[C@@H](N)CCCCNC(=O)CC[C@H](NC(=O)CCCCCCCCCCCCCCCCCCC(=O)O)C(=O)O)C(=O)N[C@@H](CC(N)=O)C(=O)N[C@@H]([C@@H](C)O)C(=O)N[C@@H](C)C(=O)N[C@@H]([C@@H](C)O)C(=O)N1)[C@@H](C)O)C(=O)N1CCC[C@H]1C(=O)N[C@@H](CO)C(=O)N[C@@H](CO)C(=O)N[C@H](C(=O)N[C@@H](CC(N)=O)C(=O)N[C@H](C(=O)NCC(=O)N[C@@H](CO)C(=O)N[C@@H](CCC(=O)O)C(=O)N[C@H](C(=O)N[C@@H](Cc1ccc(O)cc1)C(N)=O)[C@@H](C)O)C(C)C)[C@@H](C)O, also called compound 27) [N^ε1-[(4S)-4-carboxy-4-(19-carboxynonadecanoylamino)butanoyl]-[Arg17,Pro21,Pro27,Glu35]-h-amylin]	0.837 nM

Binders with a lower IC50, results first:

IC50	Binder
0.768 nM	K([AEEA-AEEA-γGlu-C20 diacid])CNTATCATQRLANFLRHSSPNFGAIPSSTNVGSETY-NH2 (disulfide 2-7; N-terminus assumed; SMILES CC[C@H](C)[C@H](NC(=O)[C@H](C)NC(=O)CNC(=O)[C@H](Cc1ccccc1)NC(=O)[C@H](CC(N)=O)NC(=O)[C@@H]1CCCN1C(=O)[C@H](CO)NC(=O)[C@H](CO)NC(=O)[C@H](Cc1c[nH]cn1)NC(=O)[C@H](CCCNC(=N)N)NC(=O)[C@H](CC(C)C)NC(=O)[C@H](Cc1ccccc1)NC(=O)[C@H](CC(N)=O)NC(=O)[C@H](C)NC(=O)[C@H](CC(C)C)NC(=O)[C@H](CCCNC(=N)N)NC(=O)[C@H](CCC(N)=O)NC(=O)[C@@H](NC(=O)[C@H](C)NC(=O)[C@@H]1CSSC[C@H](NC(=O)[C@@H](N)CCCCNC(=O)COCCOCCNC(=O)COCCOCCNC(=O)CC[C@H](NC(=O)CCCCCCCCCCCCCCCCCCC(=O)O)C(=O)O)C(=O)N[C@@H](CC(N)=O)C(=O)N[C@@H]([C@@H](C)O)C(=O)N[C@@H](C)C(=O)N[C@@H]([C@@H](C)O)C(=O)N1)[C@@H](C)O)C(=O)N1CCC[C@H]1C(=O)N[C@@H](CO)C(=O)N[C@@H](CO)C(=O)N[C@H](C(=O)N[C@@H](CC(N)=O)C(=O)N[C@H](C(=O)NCC(=O)N[C@@H](CO)C(=O)N[C@@H](CCC(=O)O)C(=O)N[C@H](C(=O)N[C@@H](Cc1ccc(O)cc1)C(N)=O)[C@@H](C)O)C(C)C)[C@@H](C)O, also called compound 25)
0.249 nM	K([AEEA-γGlu-C20 diacid])CNTATCATQRLANFLRHSSPNFGAIPSSTNVGSRTY-NH2 (disulfide 2-7; N-terminus assumed; SMILES CC[C@H](C)[C@H](NC(=O)[C@H](C)NC(=O)CNC(=O)[C@H](Cc1ccccc1)NC(=O)[C@H](CC(N)=O)NC(=O)[C@@H]1CCCN1C(=O)[C@H](CO)NC(=O)[C@H](CO)NC(=O)[C@H](Cc1c[nH]cn1)NC(=O)[C@H](CCCNC(=N)N)NC(=O)[C@H](CC(C)C)NC(=O)[C@H](Cc1ccccc1)NC(=O)[C@H](CC(N)=O)NC(=O)[C@H](C)NC(=O)[C@H](CC(C)C)NC(=O)[C@H](CCCNC(=N)N)NC(=O)[C@H](CCC(N)=O)NC(=O)[C@@H](NC(=O)[C@H](C)NC(=O)[C@@H]1CSSC[C@H](NC(=O)[C@@H](N)CCCCNC(=O)COCCOCCNC(=O)CC[C@H](NC(=O)CCCCCCCCCCCCCCCCCCC(=O)O)C(=O)O)C(=O)N[C@@H](CC(N)=O)C(=O)N[C@@H]([C@@H](C)O)C(=O)N[C@@H](C)C(=O)N[C@@H]([C@@H](C)O)C(=O)N1)[C@@H](C)O)C(=O)N1CCC[C@H]1C(=O)N[C@@H](CO)C(=O)N[C@@H](CO)C(=O)N[C@H](C(=O)N[C@@H](CC(N)=O)C(=O)N[C@H](C(=O)NCC(=O)N[C@@H](CO)C(=O)N[C@@H](CCCNC(=N)N)C(=O)N[C@H](C(=O)N[C@@H](Cc1ccc(O)cc1)C(N)=O)[C@@H](C)O)C(C)C)[C@@H](C)O, also called compound 38)
0.532 nM	K([AEEA-γGlu-C20 diacid])CNTATCATQRLANFLRHSSPNFGAIPSSTNVGSETY-NH2 (disulfide 2-7; N-terminus assumed; SMILES CC[C@H](C)[C@H](NC(=O)[C@H](C)NC(=O)CNC(=O)[C@H](Cc1ccccc1)NC(=O)[C@H](CC(N)=O)NC(=O)[C@@H]1CCCN1C(=O)[C@H](CO)NC(=O)[C@H](CO)NC(=O)[C@H](Cc1c[nH]cn1)NC(=O)[C@H](CCCNC(=N)N)NC(=O)[C@H](CC(C)C)NC(=O)[C@H](Cc1ccccc1)NC(=O)[C@H](CC(N)=O)NC(=O)[C@H](C)NC(=O)[C@H](CC(C)C)NC(=O)[C@H](CCCNC(=N)N)NC(=O)[C@H](CCC(N)=O)NC(=O)[C@@H](NC(=O)[C@H](C)NC(=O)[C@@H]1CSSC[C@H](NC(=O)[C@@H](N)CCCCNC(=O)COCCOCCNC(=O)CC[C@H](NC(=O)CCCCCCCCCCCCCCCCCCC(=O)O)C(=O)O)C(=O)N[C@@H](CC(N)=O)C(=O)N[C@@H]([C@@H](C)O)C(=O)N[C@@H](C)C(=O)N[C@@H]([C@@H](C)O)C(=O)N1)[C@@H](C)O)C(=O)N1CCC[C@H]1C(=O)N[C@@H](CO)C(=O)N[C@@H](CO)C(=O)N[C@H](C(=O)N[C@@H](CC(N)=O)C(=O)N[C@H](C(=O)NCC(=O)N[C@@H](CO)C(=O)N[C@@H](CCC(=O)O)C(=O)N[C@H](C(=O)N[C@@H](Cc1ccc(O)cc1)C(N)=O)[C@@H](C)O)C(C)C)[C@@H](C)O, also called compound 26)
